Results reported in the Human Domainome abundance scans (Beltran et al. 2025).
± gives the uncertainty stated by the source.

B1: 1-phosphatidylinositol 4,5-bisphosphate phosphodiesterase gamma-2, residues 772 to 827; numbered along this chain, P16885 (parent)
chain: RTVKALYDYKAKRSDELSFCRGALIHNVSKEPGGWWKGDYGTRIQQYFPSNYVEDI

Variants of: B1
Assay: abundance fitness (aPCA) (normalised: wild type 0, dead -1); higher = more abundant; growth selection in yeast, the domain comes from the species named
Details: Homo sapiens

**Q.** Which abundance fitness does the source give for RTVKALYDYKAKRSDELSFCRGALIHNVSKEPGGWWKGDYGTRIQQYFPSNYVEGI here?
**A.** -0.314 ± 0.074

**Q.** With RTVKALYDYKAKRSDELSFCRGALIHNVSKEPGGWWKGDYGTRIQQYFPSNYVEYI as the variant, how does the abundance fitness read?
**A.** -0.287 ± 0.15

**Q.** Which abundance fitness does the source give for RTVKALYDYKAKRSDELSFCRGALIHNVSKEPGGWWKGDYGTRIQQYFPSNYVEPI here?
**A.** -0.022 ± 0.092

**Q.** For RTVKALYDYKAKRSDELSFCRGALIHNVSKEPGGWWKGDYGTRIQQYFPSNYVELI, which abundance fitness is on record?
**A.** -0.448 ± 0.12

**Q.** With RTVKALYDYKAKRSDELSFCRGALIHNVSKEPGGWWKGDYGTRIQQYFPSNYVEVI as the variant, how does the abundance fitness read?
**A.** -0.238 ± 0.06

**Q.** Which abundance fitness does the source give for RTVKALYDYKAKRSDELSFCRGALIHNVSKEPGGWWKGDYGTRIQQYFPSNYVEAI here?
**A.** -0.114 ± 0.069

**Q.** Which abundance fitness does the source give for RTVKALYDYKAKRSDELSFCRGALIHNVSKEPGGWWKGDYGTRIQQYFPSNYVECI here?
**A.** -0.139 ± 0.049

**Q.** With RTVKALYDYKAKRSDELSFCRGALIHNVSKEPGGWWKGDYGTRIQQYFPSNYVEQI as the variant, how does the abundance fitness read?
**A.** -0.281 ± 0.12

**Q.** With RTVKALYDYKAKRSDELSFCRGALIHNVSKEPGGWWKGDYGTRIQQYFPSNYVESI as the variant, how does the abundance fitness read?
**A.** -0.216 ± 0.081

**Q.** With RTVKALYDYKAKRSDELSFCRGALIHNVSKEPGGWWKGDYGTRIQQYFPSNYVENI as the variant, how does the abundance fitness read?
**A.** -0.033 ± 0.065

**Q.** For RTVKALYDYKAKRSDELSFCRGALIHNVSKEPGGWWKGDYGTRIQQYFPSNYVEII, which abundance fitness is on record?
**A.** -0.365 ± 0.29

**Q.** With RTVKALYDYKAKRSDELSFCRGALIHNVSKEPGGWWKGDYGTRIQQYFPYNYVEDI as the variant, how does the abundance fitness read?
**A.** 0.057 ± 0.098

**Q.** For RTVKALYDYKAKRSDELSFCRGALIHNVSKEPGGWWKGDYGTRIQQYFPSNCVEDI, which abundance fitness is on record?
**A.** -0.086 ± 0.064

**Q.** With RTVKALYDYKAKRSDELSFCRGALIHNVSKEPGGWWKGDYGTRIQQYFPSNLVEDI as the variant, how does the abundance fitness read?
**A.** 0.026 ± 0.049

**Q.** With RTVKALYDYKAKRSDELSFCRGALIHNVSKEPGGWWKGDYGTRIQQYFPSNMVEDI as the variant, how does the abundance fitness read?
**A.** 0.045 ± 0.071

**Q.** For RTVKALYDYKAKRSDELSFCRGALIHNVSKEPGGWWKGDYGTRIQQYFPSNIVEDI, which abundance fitness is on record?
**A.** -0.077 ± 0.16

**Q.** Which abundance fitness does the source give for RTVKALYDYKAKRSDELSFCRGALIHNVSKEPGGWWKGDYGTRIQQYFPSNNVEDI here?
**A.** -0.605 ± 0.21

**Q.** For RTVKALYDYKAKRSDELSFCRGALIHNVSKEPGGWWKGDYGTRIQQYFPSNRVEDI, which abundance fitness is on record?
**A.** -0.295 ± 0.049

**Q.** With RTVKALYDYKAKRSDELSFCRGALIHNVSKEPGGWWKGDYGTRIQQYFPSNPVEDI as the variant, how does the abundance fitness read?
**A.** -0.892 ± 0.29

**Q.** Which abundance fitness does the source give for RTVKALYDYKAKRSDELSFCRGALIHNVSKEPGGWWKGDYGTRIQQYFPSNHVEDI here?
**A.** -0.222 ± 0.097

**Q.** Which abundance fitness does the source give for RTVKALYDYKAKRSDELSFCRGALIHNVSKEPGGWWKGDYGTRIQQYFPSNGVEDI here?
**A.** -0.787 ± 0.11

**Q.** For RTVKALYDYKAKRSDELSFCRGALIHNVSKEPGGWWKGDYGTRIQQYFPSNKVEDI, which abundance fitness is on record?
**A.** -0.138 ± 0.11

**Q.** Which abundance fitness does the source give for RTVKALYDYKAKRSDELSFCRGALIHNVSKEPGGWWKGDYGTRIQQYFPSNQVEDI here?
**A.** -0.281 ± 0.1

**Q.** With RTVKALYDYKAKRSDELSFCRGALIHNVSKEPGGWWKGDYGTRIQQYFPSNDVEDI as the variant, how does the abundance fitness read?
**A.** -0.98 ± 0.35

**Q.** With RTVKALYDYKAKRSDELSFCRGALIHNVSKEPGGWWKGDYGTRIQQYFPSNAVEDI as the variant, how does the abundance fitness read?
**A.** -0.092 ± 0.091

**Q.** With RTVKALYDYKAKRSDELSFCRGALIHNVSKEPGGWWKGDYGTRIQQYFPSNSVEDI as the variant, how does the abundance fitness read?
**A.** -0.304 ± 0.066

**Q.** For RTVKALYDYKAKRSDELSFCRGALIHNVSKEPGGWWKGDYGTRIQQYFPSNTVEDI, which abundance fitness is on record?
**A.** 0.01 ± 0.094

**Q.** With RTVKALYDYKAKRSDELSFCRGALIHNVSKEPGGWWKGDYGTRIQQYFPSNWVEDI as the variant, how does the abundance fitness read?
**A.** -0.327 ± 0.089

**Q.** Which abundance fitness does the source give for RTVKALYDYKAKRSDELSFCRGALIHNVSKEPGGWWKGDYGTRIQQYFPSNFVEDI here?
**A.** 0.022 ± 0.081

**Q.** For RTVKALYDYKAKRSDELSFCRGALIHNVSKEPGGWWKGDYGTRIQQYFPSNEVEDI, which abundance fitness is on record?
**A.** -0.943 ± 0.47

**Q.** For RTVKALYDYKAKRSDELSFCRGALIHNVSKEPGGWWKGDYGTRIQQYFPSNYVTDI, which abundance fitness is on record?
**A.** -0.256 ± 0.067

**Q.** For RTVKALYDYKAKRSDELSFCRGALIHNVSKEPGGWWKGDYGTRIQQYFPSNYVADI, which abundance fitness is on record?
**A.** -0.119 ± 0.053

**Q.** Which abundance fitness does the source give for RTVKALYDYKAKRSDELSFCRGALIHNVSKEPGGWWKGDYGTRIQQYFPSNYVCDI here?
**A.** -0.197 ± 0.094

**Q.** For RTVKALYDYKAKRSDELSFCRGALIHNVSKEPGGWWKGDYGTRIQQYFPSNYVIDI, which abundance fitness is on record?
**A.** -0.353 ± 0.14

**Q.** For RTVKALYDYKAKRSDELSFCRGALIHNVSKEPGGWWKGDYGTRIQQYFPSNYVGDI, which abundance fitness is on record?
**A.** -0.276 ± 0.055

**Q.** With RTVKALYDYKAKRSDELSFCRGALIHNVSKEPGGWWKGDYGTRIQQYFPSNYVHDI as the variant, how does the abundance fitness read?
**A.** -0.272 ± 0.082

**Q.** With RTVKALYDYKAKRSDELSFCRGALIHNVSKEPGGWWKGDYGTRIQQYFPSNYVQDI as the variant, how does the abundance fitness read?
**A.** -0.392 ± 0.12

**Q.** For RTVKALYDYKAKRSDELSFCRGALIHNVSKEPGGWWKGDYGTRIQQYFPSNYVNDI, which abundance fitness is on record?
**A.** -0.196 ± 0.17

**Q.** For RTVKALYDYKAKRSDELSFCRGALIHNVSKEPGGWWKGDYGTRIQQYFPSNYVMDI, which abundance fitness is on record?
**A.** -0.316 ± 0.17

**Q.** With RTVKALYDYKAKRSDELSFCRGALIHNVSKEPGGWWKGDYGTRIQQYFPSNYVWDI as the variant, how does the abundance fitness read?
**A.** -0.55 ± 0.055

**Q.** With RTVKALYDYKAKRSDELSFCRGALIHNVSKEPGGWWKGDYGTRIQQYFPSNYVRDI as the variant, how does the abundance fitness read?
**A.** -0.125 ± 0.045

**Q.** Which abundance fitness does the source give for RTVKALYDYKAKRSDELSFCRGALIHNVSKEPGGWWKGDYGTRIQQYFPSNYVDDI here?
**A.** -0.291 ± 0.21

**Q.** For RTVKALYDYKAKRSDELSFCRGALIHNVSKEPGGWWKGDYGTRIQQYFPSNYVVDI, which abundance fitness is on record?
**A.** -0.244 ± 0.061

**Q.** Which abundance fitness does the source give for RTVKALYDYKAKRSDELSFCRGALIHNVSKEPGGWWKGDYGTRIQQYFPSNYVYDI here?
**A.** -0.38 ± 0.15

**Q.** Which abundance fitness does the source give for RTVKALYDYKAKRSDELSFCRGALIHNVSKEPGGWWKGDYGTRIQQYFPSNYVFDI here?
**A.** -0.04 ± 0.12

**Q.** With RTVKALYDYKAKRSDELSFCRGALIHNVSKEPGGWWKGDYGTRIQQYFPSNYVLDI as the variant, how does the abundance fitness read?
**A.** -0.434 ± 0.05

**Q.** With RTVKALYDYKAKRSDELSFCRGALIHNVSKEPGGWWKGDYGTRIQQYFPSHYVEDI as the variant, how does the abundance fitness read?
**A.** 0.208 ± 0.11

**Q.** With RTVKALYDYKAKRSDELSFCRGALIHNVSKEPGGWWKGDYGTRIQQYFPSAYVEDI as the variant, how does the abundance fitness read?
**A.** -0.025 ± 0.058

**Q.** Which abundance fitness does the source give for RTVKALYDYKAKRSDELSFCRGALIHNVSKEPGGWWKGDYGTRIQQYFPSKYVEDI here?
**A.** -0.076 ± 0.069

**Q.** For RTVKALYDYKAKRSDELSFCRGALIHNVSKEPGGWWKGDYGTRIQQYFPSLYVEDI, which abundance fitness is on record?
**A.** -0.261 ± 0.057

**Q.** Which abundance fitness does the source give for RTVKALYDYKAKRSDELSFCRGALIHNVSKEPGGWWKGDYGTRIQQYFPSPYVEDI here?
**A.** -0.425 ± 0.12

**Q.** With RTVKALYDYKAKRSDELSFCRGALIHNVSKEPGGWWKGDYGTRIQQYFPSMYVEDI as the variant, how does the abundance fitness read?
**A.** -0.232 ± 0.092

**Q.** For RTVKALYDYKAKRSDELSFCRGALIHNVSKEPGGWWKGDYGTRIQQYFPSWYVEDI, which abundance fitness is on record?
**A.** -0.022 ± 0.054

**Q.** For RTVKALYDYKAKRSDELSFCRGALIHNVSKEPGGWWKGDYGTRIQQYFPSVYVEDI, which abundance fitness is on record?
**A.** -0.134 ± 0.076

**Q.** For RTVKALYDYKAKRSDELSFCRGALIHNVSKEPGGWWKGDYGTRIQQYFPSCYVEDI, which abundance fitness is on record?
**A.** 0.13 ± 0.089

**Q.** Which abundance fitness does the source give for RTVKALYDYKAKRSDELSFCRGALIHNVSKEPGGWWKGDYGTRIQQYFPSYYVEDI here?
**A.** -0.155 ± 0.12

**Q.** For RTVKALYDYKAKRSDELSFCRGALIHNVSKEPGGWWKGDYGTRIQQYFPSRYVEDI, which abundance fitness is on record?
**A.** -0.057 ± 0.048

**Q.** For RTVKALYDYKAKRSDELSFCRGALIHNVSKEPGGWWKGDYGTRIQQYFPSGYVEDI, which abundance fitness is on record?
**A.** -0.034 ± 0.044

**Q.** For RTVKALYDYKAKRSDELSFCRGALIHNVSKEPGGWWKGDYGTRIQQYFPSTYVEDI, which abundance fitness is on record?
**A.** -0.025 ± 0.045

**Q.** For RTVKALYDYKAKRSDELSFCRGALIHNVSKEPGGWWKGDYGTRIQQYFPSFYVEDI, which abundance fitness is on record?
**A.** -0.398 ± 0.33

**Q.** Which abundance fitness does the source give for RTVKALYDYKAKRSDELSFCRGALIHNVSKEPGGWWKGDYGTRIQQYFPSIYVEDI here?
**A.** -0.373 ± 0.25

**Q.** With RTVKALYDYKAKRSDELSFCRGALIHNVSKEPGGWWKGDYGTRIQQYFPSEYVEDI as the variant, how does the abundance fitness read?
**A.** 0.094 ± 0.065

**Q.** For RTVKALYDYKAKRSDELSFCRGALIHNVSKEPGGWWKGDYGTRIQQYFPSQYVEDI, which abundance fitness is on record?
**A.** -0.129 ± 0.087

**Q.** With RTVKALYDYKAKRSDELSFCRGALIHNVSKEPGGWWKGDYGTRIQQYFPSSYVEDI as the variant, how does the abundance fitness read?
**A.** 0.067 ± 0.059
